Each block holds one molecule with its values, some of them ahead of it. Where a SMILES comes first, the peptide text is derived from it. The star is where a group is joined. Cbz = O=C(OCc1ccccc1)*; CH2F = FC*
Columns and labels:
[1] = system: LA4 monolayer; settings: LA4 cells; cited from earlier work
[2] = system: HPAEpiC; settings: cited from earlier work
[3] = molecular target: T1, biotinylated WT-sFasL (human, UniProt P48023 103-281, biotinylated with EZ-Link Sulfo-NHS-LC-Biotin (sites not given)); test: mixture captured on streptavidin-coated wells, detected with HRP anti-FLAG antibody
T1 construct: range 103-281; Same protein as WT-sFasL, chemically biotinylated; also called biotinylated wild type sFasL
T1 sequence (looked up): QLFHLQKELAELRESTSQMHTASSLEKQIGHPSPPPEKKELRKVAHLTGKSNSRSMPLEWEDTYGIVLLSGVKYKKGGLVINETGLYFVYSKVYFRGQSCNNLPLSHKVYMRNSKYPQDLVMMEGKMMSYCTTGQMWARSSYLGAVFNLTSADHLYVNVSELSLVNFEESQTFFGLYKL
Procedure: (§1) Serial 3-fold dilutions of FLAG tagged mut-sFasL were mixed with biotinylated WT sFasL (60 ng). The mixtures were incubated at room temperature for 15 minutes and applied to streptavidin-coated wells. FLAG tags were detected with HRP anti-FLAG mAb. There was a dose-dependent increase in FLAG signal in wells incubated with the biotinylated WT sFasL+ and the mut-sFasL-FLAG mixture, showing the formation of complexes of WT and mut-sFasL. […] Data shown as ratio of the absorbance at 450 nm of each experimental condition to that of media only. Data were generated from three separate experiments, each done in duplicate, and were analyzed by 2-way ANOVA with Dunnet's post hoc analysis; comparisons were made to 0 ng/mL for each condition. Each dot represents individual data, lines represent means±SD. *=P<0.05; **=P<0.01, ***P<0.001.
The mut-sFasL forms complexes with WT sFasL. In order to be active, sFasL must form trimers or higher order multimers. Therefore, it was tested whether the mut-sFasL forms complexes with WT-sFasL. The mixture was incubated in streptavidin-coated well to capture the biotinylated WT-sFasL. After washing unbound material, FLAG was detected using an anti-FLAG antibody, which would detect FLAG-tagged mut-sFasL complexed with biotinylated WT-sFasL. […]

[4] = molecular target: T2, recombinant human Fas (Homo sapiens, UniProt P25445); test: Competition assay: binding of biotinylated WT sFasL to plate-coated recombinant human Fas; settings: biotinylated WT-sFasL 70 ng/mL, Fas coated at 250 ng/mL, serial 3-fold dilutions
T2 construct: recombinant human soluble Fas receptors (PeproTech, Rocky Hill, N.J.); purchased PeproTech
T2 sequence (P25445 26-173 limits assumed): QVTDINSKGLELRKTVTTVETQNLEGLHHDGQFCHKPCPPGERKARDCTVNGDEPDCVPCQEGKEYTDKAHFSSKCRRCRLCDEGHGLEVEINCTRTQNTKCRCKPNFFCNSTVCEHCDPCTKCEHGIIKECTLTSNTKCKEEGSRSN
Procedure: The mixtures were incubated for 2 hours in 96-well plates pre-coated with recombinant hsFas (250 ng/ml). After washing unbound material, biotin was detected using HRP conjugated Streptavidin. […] The sFasL bound to Fas was detected using polyclonal anti-human FasL antibodies. […] Different molar ratios of the Fas-activating antibody CH-11 and mut-sFasL were added, and caspase 3/7 activity measured after 5 hours. […] Data represent the results from three separate experiments, each done in duplicate, and were analyzed by 2-way ANOVA with Sidak's post hoc analysis. […] Each dot represents individual data; lines represent means±SD. *=P<0.05; **=P<0.01, ***P<0.001.
Antibodies and Reagents. […] FLAG tagged mut-sFasL was detected using HRP anti-FLAG monoclonal antibody (Sigma-Aldrich, Cat #A85920). […]
WT-sFasL inhibition occurs prior to receptor binding. […] Recombinant human Fas at 250 ng/mL were coated and the binding of a fixed concentration of biotinylated WT-sFasL (70 ng/mL) were measured in the presence of serial 3-fold dilutions of either WT-sFasL or mut-sFasL. […] Serial dilutions of either WT-sFasL or mut-sFasL were incubated in wells coated with recombinant human Fas, 5 μg/mL, and after washing, detected sFasL bound to Fas using polyclonal anti-FasL antibodies. […]

[5] = system: biotinylated WT sFasL; test: Complex formation of FLAG tagged mut-sFasL with biotinylated WT sFasL on streptavidin-coated wells; format: binding, human; settings: FLAG-tagged mut-sFasL by itself
Procedure: as §1, with “mAb.” for “mAb. There was a dose-dependent increase in FLAG signal in wells incubated with the biotinylated WT sFasL+ and the mut-sFasL-FLAG mixture, showing the formation of complexes of WT and mut-sFasL.”
(§2) Antibodies and Reagents. To prepare immunoaffinity columns, mouse monoclonal anti-human FasL antibodies, clone 100419 (R&D System, Cat #MAB126, RRID:AB 2246667, Minneapolis, Minn.), were used. For the Fas-FasL binding assay, recombinant human soluble Fas receptors (PeproTech, Rocky Hill, N.J.) and biotinylated goat anti-human FasL antibodies (PeproTech Cat #500-P184bt-50 ug, RRID:AB 148184) were used. Mouse anti-human Fas (CD95) monoclonal IgM antibody, clone CH-11 and its isotype control antibody, clone 3D12, were obtained from MBL, Nagoya, Japan (MBL International Cat #SY-001, RRID:AB 591016 and Cat #M077-3, RRID:AB 593057, respectively). FLAG tagged mut-sFasL was detected using HRP anti-FLAG monoclonal antibody (Sigma-Aldrich, Cat #A85920). Unless otherwise indicated, the other chemicals were purchased from Sigma-Aldrich (St. Louis, Mo.).
(§3) Biotinylation of sFasL. Immunoaffinity purified WT-sFasL was biotinylated with No-Weight Format EZ-Link Sulfo-NHS-LC-Biotin (Pierce, Rockford, Ill., Cat #21327) following the manufacturer's instructions. To capture biotinylated WT-sFasL in the mixtures of biotinylated WT-sFasL and mut-sFasL-FLAG, Streptavidin-variant (Strep-Tactin XT) coated 96-well plates (iba, Gottingen, Germany, Cat #2-4101-001) were used.
(§4) The mut-sFasL forms complexes with WT sFasL. […] After washing unbound material, FLAG was detected using an anti-FLAG antibody, which would detect FLAG-tagged mut-sFasL complexed with biotinylated WT-sFasL.

[6] = molecular target: T3, biotinylated WT sFasL (Homo sapiens, UniProt P48023); test: as above; format: binding; settings: fixed biotinylated WT sFasL (60 ng), increasing FLAG-tagged mut-sFasL
T3 construct: biotin (chemical label, EZ-Link Sulfo-NHS-LC-Biotin); made in house; host or cells: FreeStyle 293-F cells
T3 sequence (P48023 103-281): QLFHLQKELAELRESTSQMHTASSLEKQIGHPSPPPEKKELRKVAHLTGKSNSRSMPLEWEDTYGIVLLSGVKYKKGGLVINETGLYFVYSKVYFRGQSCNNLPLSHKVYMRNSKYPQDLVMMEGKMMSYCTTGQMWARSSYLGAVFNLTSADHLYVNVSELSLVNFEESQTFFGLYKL
Procedure: as §1, with “mAb.” for “mAb. There was a dose-dependent increase in FLAG signal in wells incubated with the biotinylated WT sFasL+ and the mut-sFasL-FLAG mixture, showing the formation of complexes of WT and mut-sFasL.”
as §2, §3, §4

Molecule: CC(NC(=O)C(NC(=O)OCc1ccccc1)C(C)C)C(=O)NC(CC(=O)O)C(=O)CF (stereo not drawn) [zVAD] (Cbz-Val-Ala-Asp-CH2F; configuration not given here)
reversal of cell death and monolayer permeability induced by Jo2 [1]: reversed cell death and monolayer permeability induced by Jo2

Molecule: COC(=O)CC[C@H](NC(=O)[C@H](CC(=O)OC)NC(=O)OCc1ccccc1)C(=O)N[C@H](C(=O)N[C@@H](CC(=O)OC)C(=O)CF)C(C)C [zDEVD.fmk, reference compound]
reversal of sFasL effect on monolayer permeability and ZO-1/occludin expression ([2]; HPAEpiC, pretreatment): reversed the effect of sFasL on HPAEpiC monolayer permeability and ZO-1/occludin expression

binding result [3]: binds
B1: FLAG tagged mut-sFasL (ligand, human, UniProt P48023 103-281, looked up)
chain: QLFALQAALAALAASTSQMATASSLAKQIGHPSPPPEKKELRKVAHLTGKSNSRSMPLEWEDTYGIVLLSGVKYKKGGLVINETGLYFVYSKVYFRGQSCNNLPLSHKVYMRNSKYPQDLVMMEGKMMSYCTTGQMWARSSYLGAVFNLTSADHLYVNVSELSLVNFEESQTFFGLYKL
notes: range 103-281; C-terminal FLAG tag; also called mut-sFasL-FLAG; 8-mut sFasL-FLAG; not shown: FLAG tag fused in frame after amino acid 281

B2: WT-sFasL: wild type human soluble Fas ligand, amino acids 103 to 281, expressed in FreeStyle 293-F cells (protein, UniProt P48023 103-281, looked up, fragment)
chain: QLFHLQKELAELRESTSQMHTASSLEKQIGHPSPPPEKKELRKVAHLTGKSNSRSMPLEWEDTYGIVLLSGVKYKKGGLVINETGLYFVYSKVYFRGQSCNNLPLSHKVYMRNSKYPQDLVMMEGKMMSYCTTGQMWARSSYLGAVFNLTSADHLYVNVSELSLVNFEESQTFFGLYKL
effect of increasing competitor concentration on binding of biotinylated WT-sFasL to Fas [4]: binding of biotinylated WT-sFasL to Fas decreased
caspase 3 induction ([2]; HPAEpiC exposed to long form of sFasL): induced caspase 3

FLAG signal (complexes with WT sFasL) [6]: dose-dependent increase in FLAG signal
B3: mut-sFasL-FLAG: 8-mut sFasL with FLAG tag at the 3′-end of the 281th amino acid coding sequence (protein)
chain: QLFALQAALAALAASTSQMATASSLAKQIGHPSPPPEKKELRKVAHLTGKSNSRSMPLEWEDTYGIVLLSGVKYKKGGLVINETGLYFVYSKVYFRGQSCNNLPLSHKVYMRNSKYPQDLVMMEGKMMSYCTTGQMWARSSYLGAVFNLTSADHLYVNVSELSLVNFEESQTFFGLYKL
modifications: left off: small tags and cut ends
binding to streptavidin-coated plate without biotinylated WT sFasL [5]: did not bind to the streptavidin-coated plates
binding to streptavidin-coated plate without biotinylated WT sFasL ([5]; listed as FLAG-tagged mut-sFasL): did not bind to the plate, even at high concentrations

— patent US20220002363A1, “COMPOSITIONS AND METHODS FOR TREATING PULMONARY DISEASE” (United States Government As Represented By The Department …, priority 2020, published 2022)
